The text below walks through data of paper PMC3046773 (Life sciences, 2010).

This test has as its target T1, PGIS–CFP (human, UniProt Q16647 1-500).
T1 sequence (looked up): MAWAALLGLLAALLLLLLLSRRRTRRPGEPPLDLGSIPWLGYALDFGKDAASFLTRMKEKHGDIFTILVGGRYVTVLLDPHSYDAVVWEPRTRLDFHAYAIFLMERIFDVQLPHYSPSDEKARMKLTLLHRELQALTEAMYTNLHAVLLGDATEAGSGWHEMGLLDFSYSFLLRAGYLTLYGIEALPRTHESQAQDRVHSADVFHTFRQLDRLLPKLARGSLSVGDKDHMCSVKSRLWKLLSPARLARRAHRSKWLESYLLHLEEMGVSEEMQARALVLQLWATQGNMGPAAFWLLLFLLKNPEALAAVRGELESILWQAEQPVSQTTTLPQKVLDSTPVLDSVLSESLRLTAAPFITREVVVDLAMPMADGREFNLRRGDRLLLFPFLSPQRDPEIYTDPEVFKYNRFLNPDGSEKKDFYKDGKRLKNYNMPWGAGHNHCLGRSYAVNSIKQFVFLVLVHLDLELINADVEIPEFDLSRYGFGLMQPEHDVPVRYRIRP
The test can be described thus: FRET or BRET. Background: In BRET a luciferase serves as donor, and the signal depends on an acceptor being close.

B1: COX-2-RFP (enzyme, human, UniProt P35354 18-604, looked up)
chain: ANPCCSHPCQNRGVCMSVGFDQYKCDCTRTGFYGENCSTPEFLTRIKLFLKPTPNTVHYILTHFKGFWNVVNNIPFLRNAIMSYVLTSRSHLIDSPPTYNADYGYKSWEAFSNLSYYTRALPPVPDDCPTPLGVKGKKQLPDSNEIVEKLLLRRKFIPDPQGSNMMFAFFAQHFTHQFFKTDHKRGPAFTNGLGHGVDLNHIYGETLARQRKLRLFKDGKMKYQIIDGEMYPPTVKDTQAEMIYPPQVPEHLRFAVGQEVFGLVPGLMMYATIWLREHNRVCDVLKQEHPEWGDEQLFQTSRLILIGETIKIVIEDYVQHLSGYHFKLKFDPELLFNKQFQYQNRIAAEFNTLYHWHPLLPDTFQIHDQKYNYQQFIYNNSILLEHGITQFVESFTRQIAGRVAGGRNVPPAVQKVSQASIDQSRQMKYQSFNEYRKRFMLKPYESFEELTGEKEMSAELEALYGDIDAVELYPALLVEKPRPDAIFGETMVEVGAPFSLKGLMGNVICSPAYWKPSTFGGEVGFQIINTASIQSLICNNVKGCPFTSFSVPDPELIKTVTINASSSRSGLDDINPTVLLKERSTEL
As for B1, the “FRET intensity relative to COX-1-RFP with PGIS–CFP” value turned out to be 2 fold.
